According to patent US20140087995A1 (published 2014):
Numbered stars: 1 amine (or outer) side, 2 acyl side, 3 side chain; on linkers, the order of the positions; unused ones are H or OH. Bridge positions count the residues as written; N and C are the ends. Side chains are listed from the residue outwards. Ends that are not written are not given here. * marks the point of attachment. C20 diacid = O=C(O)CCCCCCCCCCCCCCCCCCC(=O)*; γGlu = O=C(O)[C@H](CCC(=O)[*:2])N[*:1]

T1: rat amylin receptor (rat calcitonin receptor + rat RAMP 3) (rat, UniProt P32214 25-516; Q9JJ73 23-147)
T1 construct: whole, on cells; Membranes prepared from transiently transfected BHK tk'ts 13 cells; also called rAmylin-R; rat amylin 3(a) receptor
T1 sequence (looked up) 1: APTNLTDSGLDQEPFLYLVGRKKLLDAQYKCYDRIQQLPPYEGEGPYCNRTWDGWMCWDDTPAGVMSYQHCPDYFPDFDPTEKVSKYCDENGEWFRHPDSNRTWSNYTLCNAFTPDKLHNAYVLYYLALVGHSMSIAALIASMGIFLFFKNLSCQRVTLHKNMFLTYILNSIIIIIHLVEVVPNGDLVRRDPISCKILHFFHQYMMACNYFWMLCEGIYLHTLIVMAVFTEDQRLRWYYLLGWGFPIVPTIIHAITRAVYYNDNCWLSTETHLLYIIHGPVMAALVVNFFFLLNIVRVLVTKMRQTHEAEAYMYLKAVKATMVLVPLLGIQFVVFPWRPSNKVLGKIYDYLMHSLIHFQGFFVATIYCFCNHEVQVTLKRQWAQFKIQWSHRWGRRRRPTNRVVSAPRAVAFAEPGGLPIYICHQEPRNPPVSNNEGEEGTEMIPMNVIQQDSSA
T1 sequence (looked up) 2: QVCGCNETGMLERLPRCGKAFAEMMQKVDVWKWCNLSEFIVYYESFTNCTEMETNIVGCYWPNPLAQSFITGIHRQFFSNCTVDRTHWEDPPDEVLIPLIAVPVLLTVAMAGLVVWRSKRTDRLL

T2: rat calcitonin receptor (rat, UniProt P32214 25-516)
T2 construct: whole, on cells; Membranes prepared from transiently transfected BHK tk'ts 13 cells; also called rCTR; rat calcitonin (a) receptor
T2 sequence (looked up): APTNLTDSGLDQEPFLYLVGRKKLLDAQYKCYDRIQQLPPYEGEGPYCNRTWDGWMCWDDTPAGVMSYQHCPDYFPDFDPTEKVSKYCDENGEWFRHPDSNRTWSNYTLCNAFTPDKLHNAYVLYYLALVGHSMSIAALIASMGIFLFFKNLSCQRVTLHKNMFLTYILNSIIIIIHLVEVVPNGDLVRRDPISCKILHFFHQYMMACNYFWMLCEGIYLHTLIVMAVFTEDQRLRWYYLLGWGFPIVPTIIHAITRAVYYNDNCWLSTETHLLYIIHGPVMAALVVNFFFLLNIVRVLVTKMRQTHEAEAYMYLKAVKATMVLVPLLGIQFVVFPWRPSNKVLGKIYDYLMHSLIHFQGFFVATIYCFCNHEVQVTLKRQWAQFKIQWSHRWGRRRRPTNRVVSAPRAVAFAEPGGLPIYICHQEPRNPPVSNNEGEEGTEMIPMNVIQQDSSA

T3: human calcitonin receptor (human, UniProt P30988 25-474)
T3 construct: whole, on cells; Membranes from stably transfected BHK cells; also called hCTR; hCT
T3 sequence (looked up): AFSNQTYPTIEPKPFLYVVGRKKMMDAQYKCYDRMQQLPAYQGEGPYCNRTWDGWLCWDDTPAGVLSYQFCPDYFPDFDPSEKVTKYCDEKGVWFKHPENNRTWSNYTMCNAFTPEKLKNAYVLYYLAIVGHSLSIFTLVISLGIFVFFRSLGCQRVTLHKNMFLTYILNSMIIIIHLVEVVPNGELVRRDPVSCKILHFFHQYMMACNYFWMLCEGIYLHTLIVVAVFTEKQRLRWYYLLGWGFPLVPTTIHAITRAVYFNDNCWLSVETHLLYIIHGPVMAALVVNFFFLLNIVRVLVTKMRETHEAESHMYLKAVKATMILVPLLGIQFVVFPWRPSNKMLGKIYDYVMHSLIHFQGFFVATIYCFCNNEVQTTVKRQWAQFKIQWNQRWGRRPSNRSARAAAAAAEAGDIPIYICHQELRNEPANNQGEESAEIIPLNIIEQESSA

T4: human calcitonin receptor (human, UniProt P30988 25-474)
T4 construct: whole, on cells; Assay used cell membranes of the transfected BHK cells; also called hCTR; hCT
T4 sequence (looked up): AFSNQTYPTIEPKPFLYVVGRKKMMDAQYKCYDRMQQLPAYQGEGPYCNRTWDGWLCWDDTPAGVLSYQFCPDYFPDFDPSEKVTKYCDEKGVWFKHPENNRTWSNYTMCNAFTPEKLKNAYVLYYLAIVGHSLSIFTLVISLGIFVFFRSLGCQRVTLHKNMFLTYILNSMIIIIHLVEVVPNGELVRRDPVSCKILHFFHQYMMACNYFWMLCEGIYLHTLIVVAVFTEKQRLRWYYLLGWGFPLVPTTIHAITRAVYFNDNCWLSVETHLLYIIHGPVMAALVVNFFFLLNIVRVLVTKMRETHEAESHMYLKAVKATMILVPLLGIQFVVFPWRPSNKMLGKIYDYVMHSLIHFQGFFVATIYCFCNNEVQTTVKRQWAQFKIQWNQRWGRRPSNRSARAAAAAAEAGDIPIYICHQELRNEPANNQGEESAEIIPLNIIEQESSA


Assays:
[1] = target: T1, rat amylin receptor (rat calcitonin …); assay: SPA competition vs 125I-rat amylin, membranes (Assay VI)
rat calcitonin receptor [2] = target: T2, rat calcitonin receptor; assay: SPA competition vs 125I-calcitonin, membranes (Assay VIII)
rat calcitonin receptor [3] = target: T2, rat calcitonin receptor; assay: ratio of IC50 on rat calcitonin receptor to IC50 on rat amylin receptor
[4] = target: T3, human calcitonin receptor; assay: ratio of IC50 on human calcitonin receptor to IC50 on human amylin receptor
How it was run: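 IC₅₀ values were derived by one-site competition analysis of SPA counts. Cell membranes (35 ng/μL) with SPA beads were incubated with test compounds for 120 min at 25° C in Hepes buffer, pH 7.4, containing CaCl2, MgCl₂, OA and Tween20.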

[5] = target: T4, human calcitonin receptor; assay: SPA radioligand competition (125I-calcitonin), membranes of BHK cells with human calcitonin receptor
How it was run: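 BHK hCTR membranes 35 ng/μL + SPA beads 0.05 mg/well; buffer 50 mM Hepes pH 7.4, 1 mM CaCl2, 5 mM MgCl₂, 0.1% OA, 0.02% Tween20. 120 min, 25° C., shaking. Scintillation count; IC50 by one-site binding competition.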

[6] = target: T4, human calcitonin receptor; assay: ratio IC50 hCTR / IC50 hAmylin-R of the two SPA competition assays; reference: human amylin receptor
Procedure: The resulting pellet was resuspended, homogenized and centrifuged (20.000 rpm, 15 min) in a buffer containing 20 mM Na-HEPES and 0.1 mM EDTA (pH 7.4, buffer 2). The resulting pellet was resuspended in buffer 2 and protein concentration was measured (BCA protein Assay, Pierce). The homogenate was kept cold during the whole procedure. The membranes were kept at −80° C. until use. The assay was performed in a 384 well Optiplate (PerkinElmer) in a total volume of 40 ul. Membranes were mixed with SPA beads. Final concentration of membranes 35 ng/μL final and SPA beads was 0.05 mg/well. Test-compounds were dissolved in DMSO and further diluted in assay buffer (50 mM Hepes, pH 7.4, 1 mM CaCl2, 5 mM MgCl₂, 0.1% OA and 0.02% Tween20). […] The final mixture was incubated with shaking at 400 rpm for 120 min at 25° C. prior to centrifugation (1500 rpm, 10 min). Samples were analyzed on TopCounter™ (Packard). The IC₅₀ was calculated using (one site binding competition analysis) GraphPad Prism5 as a measure of receptor affinity.
Membranes were prepared in the following way; the cells were rinsed with PBS and incubated with Versene for approximately 5 min before harvesting. The cells were flushed with PBS and the cell-suspension was centrifuged for 5 min at 1000 rpm. Cells were homogenized (Ultrathurrax) in a buffer containing 20 mM Na-HEPES and 10 mM EDTA (pH 7.4) and centrifuged at 20.000 rpm for 15 min. The resulting pellet was resuspended, homogenized and centrifuged (20.000 rpm, 15 min) in a buffer containing 20 mM Na-HEPES and 0.1 mM EDTA (pH 7.4, buffer 2). The resulting pellet was resuspended in buffer 2 and protein concentration was measured (BCA protein Assay, Pierce). The homogenate was kept cold during the whole procedure. The membranes were kept at −80° C. until use. Assay was performed in a 384 well Optiplate (PerkinElmer) in a total volume of 40 ul. Membranes were mixed with SPA beads.

IC50 [1] [µM] | IC50 (rat calcitonin receptor [2]) [µM] | Ratio rCT/rAmylin binding (rat calcitonin receptor [3]) | Ratio hCT/hAmylin binding [4] | IC50 [5] [µM] | Ratio hCT/hAmylin binding [6] | Binder
0.000164 | 0.0104 | 63.2 | 13.3 |  |  | K([γGlu-C20 diacid])CNTATCATQRLAEFLRHSSPNFGAIPSSTNVGPETY-NH2 (disulfide 2-7; N-terminus assumed; SMILES CC[C@H](C)[C@H](NC(=O)[C@H](C)NC(=O)CNC(=O)[C@H](Cc1ccccc1)NC(=O)[C@H](CC(N)=O)NC(=O)[C@@H]1CCCN1C(=O)[C@H](CO)NC(=O)[C@H](CO)NC(=O)[C@H](Cc1c[nH]cn1)NC(=O)[C@H](CCCNC(=N)N)NC(=O)[C@H](CC(C)C)NC(=O)[C@H](Cc1ccccc1)NC(=O)[C@H](CCC(=O)O)NC(=O)[C@H](C)NC(=O)[C@H](CC(C)C)NC(=O)[C@H](CCCNC(=N)N)NC(=O)[C@H](CCC(N)=O)NC(=O)[C@@H](NC(=O)[C@H](C)NC(=O)[C@@H]1CSSC[C@H](NC(=O)[C@@H](N)CCCCNC(=O)CC[C@H](NC(=O)CCCCCCCCCCCCCCCCCCC(=O)O)C(=O)O)C(=O)N[C@@H](CC(N)=O)C(=O)N[C@@H]([C@@H](C)O)C(=O)N[C@@H](C)C(=O)N[C@@H]([C@@H](C)O)C(=O)N1)[C@@H](C)O)C(=O)N1CCC[C@H]1C(=O)N[C@@H](CO)C(=O)N[C@@H](CO)C(=O)N[C@H](C(=O)N[C@@H](CC(N)=O)C(=O)N[C@H](C(=O)NCC(=O)N1CCC[C@H]1C(=O)N[C@@H](CCC(=O)O)C(=O)N[C@H](C(=O)N[C@@H](Cc1ccc(O)cc1)C(N)=O)[C@@H](C)O)C(C)C)[C@@H](C)O)
 |  |  |  | 0.0204 | 36.7 | KCNTATCATQRLAEFLRHSSPNFGAIPSSTNVGSNTY (C20 diacid-gGlu-2xOEG on the alpha amino group of the N-terminal residue (Lys1); disulfide Cys2-Cys7; C-terminal amide, Synthetic analogue; also called compound 19)
 |  |  |  | 0.0193 | 29 | KCNTATCATQRLANFLRHSSPNFGAIPSSTNVGRNTY (C20 diacid-gGlu on the alpha amino group of the N-terminal residue (Lys1); disulfide Cys2-Cys7; C-terminal amide, Synthetic analogue; also called compound 39) [N^α1-[(4S)-4-carboxy-4-(19-carboxynonadecanoylamino)butanoyl]-[Arg17,Pro21,Pro27,Arg34]-h-amylin]
 |  |  |  | 0.0218 | 25 | KCNTATCATQRLANFLRHSSPNFGAIPSSTNVGSETY (C20 diacid-gGlu on the alpha amino group of the N-terminal residue (Lys1); disulfide Cys2-Cys7; C-terminal amide, Synthetic analogue; also called compound 23) [N^α1-[(4S)-4-carboxy-4-(19-carboxynonadecanoylamino)butanoyl]-[Arg17,Pro21,Pro27,Glu35]-h-amylin]
 |  |  |  | 0.0171 | 31.1 | KCNTATCATQRLANFLRHSSPNFGAIPSSTNVGHNTY (C20 diacid-gGlu on the alpha amino group of the N-terminal residue (Lys1); disulfide Cys2-Cys7; C-terminal amide, Synthetic analogue; also called compound 40) [N^α1-[(4S)-4-carboxy-4-(19-carboxynonadecanoylamino)butanoyl]-[Arg17,Pro21,Pro27,His34]-h-amylin]
 |  |  |  | 0.0125 | 20.5 | {C20 diacid-γGlu}-KCNTATCATQRLANFLRHSSPNFGAIPSSTPVGSETY-NH2 (disulfide 2-7; SMILES CC[C@H](C)[C@H](NC(=O)[C@H](C)NC(=O)CNC(=O)[C@H](Cc1ccccc1)NC(=O)[C@H](CC(N)=O)NC(=O)[C@@H]1CCCN1C(=O)[C@H](CO)NC(=O)[C@H](CO)NC(=O)[C@H](Cc1c[nH]cn1)NC(=O)[C@H](CCCNC(=N)N)NC(=O)[C@H](CC(C)C)NC(=O)[C@H](Cc1ccccc1)NC(=O)[C@H](CC(N)=O)NC(=O)[C@H](C)NC(=O)[C@H](CC(C)C)NC(=O)[C@H](CCCNC(=N)N)NC(=O)[C@H](CCC(N)=O)NC(=O)[C@@H](NC(=O)[C@H](C)NC(=O)[C@@H]1CSSC[C@H](NC(=O)[C@H](CCCCN)NC(=O)CC[C@H](NC(=O)CCCCCCCCCCCCCCCCCCC(=O)O)C(=O)O)C(=O)N[C@@H](CC(N)=O)C(=O)N[C@@H]([C@@H](C)O)C(=O)N[C@@H](C)C(=O)N[C@@H]([C@@H](C)O)C(=O)N1)[C@@H](C)O)C(=O)N1CCC[C@H]1C(=O)N[C@@H](CO)C(=O)N[C@@H](CO)C(=O)N[C@H](C(=O)N1CCC[C@H]1C(=O)N[C@H](C(=O)NCC(=O)N[C@@H](CO)C(=O)N[C@@H](CCC(=O)O)C(=O)N[C@H](C(=O)N[C@@H](Cc1ccc(O)cc1)C(N)=O)[C@@H](C)O)C(C)C)[C@@H](C)O, Synthetic analogue; also called compound 28)
